{"source": "paper PMC6760140", "binders": {"B1": {"name": "2544 Fab κC:P94T (protein)", "chain 1": "EVQLVESGGGLVQPGGSLRLSCVASGFTFSNYNMNWVRQAPGKGLEWLSYISSSSGTIYYADSVKGRFTISRDNAKNSMYLQMNSLRAEDTAVYYCVRVEYYYGSSGYYYDFDSWGQGTLVTVSS", "chain 2": "DIVMTQSPLSLPVTPGEPASISCRSSQSLLHNGYNYLDWYLQKPGQSPQLLIYLGSNRASGVPDRFSGSGSGTDFTLKISRVEAEDVGVYYCMQTLQTFTFGQGTRLEIK"}, "B2": {"name": "2544 Fab HC:G55S (protein)", "chain 1": "B1 chain 1 with G56S", "chain 2": "B1 chain 2 with T98P"}, "B3": {"name": "2544 Fab HC:D100GY (protein)", "chain 1": "B1 chain 1 with D111Y", "chain 2": "B1 chain 2 with T98P"}, "B4": {"name": "2544 Fab κC:T91A (protein)", "chain 1": "B1 chain 1", "chain 2": "B1 chain 2 with T95A, T98P"}, "B5": {"name": "2544 Fab κC:F95P (protein)", "chain 1": "B1 chain 1", "chain 2": "B1 chain 2 with T98P, F99P"}}, "note": "Substitutions are numbered along the chain they refer to. Names may count otherwise.", "data": [{"molecular_target": "Recombinant His-tagged Pfs25, P13829", "test": "BLI", "conditions": "chain shown with the change; immobilized Pfs25 and mutant Fab analyte; parent: est. 4.6; read off a plot", "units": {"Kd": "nM"}, "values": [{"binder": "B1", "Kd": 14}, {"binder": "B2", "Kd": 14}, {"binder": "B3", "Kd": 18}, {"binder": "B4", "Kd": 12}, {"binder": "B5", "Kd": 22000}]}]}
